The results in this text go back to patent publication US20180043014A1 (CELLDEX THERAPEUTICS, published 2018).

As usually defined, the Kd is the concentration at which binding is half-saturated.

The target of the assay is T1, CG56972-ECD, recombinant human GPNMB extracellular domain (aa 23-480), GPNMB-V5His (human, UniProt Q14956 23-492).
T1 construct: Expressed in HEK293 cells; also called GPNMB-V5His immunogen; purified CG56972-ECD protein; not shown: The tag would matter only for the xV5 reagent, not for the anti-GPNMB antibodies
T1 sequence: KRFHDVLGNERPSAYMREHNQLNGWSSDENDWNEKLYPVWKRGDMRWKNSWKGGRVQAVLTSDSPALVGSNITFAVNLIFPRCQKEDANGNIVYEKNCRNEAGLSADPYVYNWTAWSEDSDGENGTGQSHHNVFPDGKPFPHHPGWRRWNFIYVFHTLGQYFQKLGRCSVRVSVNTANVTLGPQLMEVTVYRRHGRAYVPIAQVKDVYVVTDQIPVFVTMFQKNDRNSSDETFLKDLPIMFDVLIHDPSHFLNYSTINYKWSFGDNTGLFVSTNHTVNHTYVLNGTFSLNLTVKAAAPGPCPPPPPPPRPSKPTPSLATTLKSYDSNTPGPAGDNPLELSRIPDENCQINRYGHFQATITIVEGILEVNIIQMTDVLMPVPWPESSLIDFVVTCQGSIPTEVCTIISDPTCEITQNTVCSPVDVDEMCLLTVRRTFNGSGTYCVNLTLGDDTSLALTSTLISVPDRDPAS
Kind of assay: method not stated; purified CG56972-ECD protein.

B1: CR011, fully human monoclonal antibody Mab 1.15.1 (IgG2) (antibody, V domains shown)
VH: QVQLQESGPGLVKPSQTLSLTCTVSGGSISSFNYYWSWIRHHPGKGLEWIGYIYYSGSTYSNPSLKSRVTISVDTSKNQFSLTLSSVTAADTAVYYCARGYNWNYFDYWGQGTLVTVSS
VL: not shown
notes: The unconjugated IgG2 form was used in flow cytometry; also called CR011 (anti-GPNMB)
Regarding B1, the Kd was 52 nM.
